According to patent US20070003549A1 (published 2007):
Residue numbers refer to the chain shown, from its start.

B1: IgG-like format No. 10 (DOM15-26 VH on CH / DOM16-52 VH on CK) (bispecific antibody, V domains shown)
V domain 1: EVQLLESGGGLVQPGGSLRLSCAASGFTFGAYPMMWVRQAPGKGLEWVSEISPSGSYTYYADSVKGRFTISRDNSKNTLYLQMNSLRAEDTAVYYCAKDPRKFDYWGQGTLVTVSS
V domain 2: EVQLLESGGGLVQPGGSLRLSCAASGFTFAEQPMTWARQAPGKGLEWVSSISSFGDLTYYADSVKGRFTISRDNSKNTLYLQMNSLRAEDTAVYYCAKGVYRISRFDYWGQGTLVTVSS
notes: IgG-like format; also called IgG 10
B2: IgG-like format No. 19 (DOM15-26 VH on CH / Dummy VK on CK) (antibody, V domains shown, not shown: a dimerising Fc or GST)
VH: B1 V domain 1
notes: IgG-like format; also called IgG 19
B3: TAR15-23 (other)
VH: EVQLLESGGGLVQPGGSLRLSCAASGFTFKAYEMGWVRQAPGKGLEWVSGISPNGGWTYYADSVKGRFTISRDNSKNTLYLQMNSLRAEDTAVYYCAKESISPTPLGFDYWGQGTLVTVSS
notes: Human dAb, VH single variable domain
B4: TAR15-24 (other)
VH: EVQLLESGGGLVQPGGSLRLSCAASGFTFTGYEMGWVRQAPGKGLEWVSYISRGGRWTYYADSVKGRFTISRDNSKNTLYLQMNSLRAEDTAVYYCAKSDTMFDYWGQGTLVTVSS
notes: as for B3
B5: TAR15-25 (other)
VH: B4 VH with T30S, G31A, Y50F, R53G, S99Y, D100S, T101E, M102D
notes: as for B3
B6: TAR15-29 (other)
VH: EVQLLESGGGLVQPGGSLRLSCAASGFTFGEYGMYWVRQAPGKGLEWVSSISERGRLTYYADSVKGRFTISRDNSKNTLYLQMNNLRAEDTAVYYCAKSALSSEGFSRSFDYWGQGTLVTVSS
notes: as for B3
B7: TAR15-8 (other)
VH: EVQLLESGGGLVQPGGSLRLSCAASGFTFQWYPMWWVRQAPGKGLEWVSLIEGQGDRTYYADSVKGRFTISRDNSKNTLYLQMNSLRAEDTAVYYCAKAGDRTAGSRGNSFDYWGQGTLVTVSS
notes: as for B3
B8: TAR15-30 (other)
VH: EVQLLESGGGLVQPGGSLRLSCAASGFTFSDYAMYWVRQAPGKGLEWVSSITARGFITYYADSVKGRFTISRDNSKNTLYLQMNSLRAEDTAVYYCAKSGFPHKSGSNYFDYWGQGTLVTVSS
notes: as for B3
B9: TAR15-7 (other)
VH: EVQLLESGGGLVQPGGSLRLSCAASGFTFNKYPMMWVRQAPGKGLEWVSEISPSGQDTYYADSVKGRFTISRDNSKNTLYLQMNSLRAEDTAVYYCAKNPQILSNFDYWGQGTLVTVSS
notes: as for B3
B10: TAR15-27 (other)
VH: EVQLLESGGGLVQPGGSLRLSCAASGFTFQFYKMGWVRQAPGKGLEWVSSISSVGDATYYADSVKGRFTISRDNSKNTLYLQMNSLRAEDTAVYYCAKMGGGPPTYVVYFDYWGQGTLVTVSS
notes: as for B3
B11: TAR15-6 (other)
VH: EVQLLESGGGLVQPGGSLRLSCAASGFTFHLYDMMWVRQAPGKGLEWVSFIGGDGLNTYYADSVKGRFTISRDNSKNTLYLQMNSLRAEDTAVYYCAKAGTQFDYWGQGTLVTVSS
notes: as for B3
B12: TAR15-5 (other)
VH: EVQLLESGGGLVQPGGSLRLSCAASGFTFRLYDMVWVRQAPGKGLEWVSYISSGGSGTYYADSVKGRFTISRDNSKNTLYLQMNSLRAEDTAVYYCAKAGGRASFDYWGQGTLVTVSS
notes: as for B3

Biological target: T1, VEGF-165 (human, UniProt P15692-4 27-191)
T1 sequence (P15692 other isoform, or with tags, fused parts or gaps limits assumed): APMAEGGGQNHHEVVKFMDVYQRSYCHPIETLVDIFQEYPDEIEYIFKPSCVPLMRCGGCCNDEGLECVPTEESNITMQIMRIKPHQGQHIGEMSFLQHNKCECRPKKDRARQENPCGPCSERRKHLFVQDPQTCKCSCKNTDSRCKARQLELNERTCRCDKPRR
Experiment: cell-based or functional assay

| VEGF (bioassay) ND50 [nM] | Binder |
| --- | --- |
| 0.2 | B1 |

Biological target: T1, VEGF-165
Experiment: VEGF RBA (ELISA): inhibition of VEGF binding to VEGF receptor (R1 or R2 not specified); IgG-like format

| IC50 [nM] | Binder |
| --- | --- |
| 0.05 | B1 |
| 4.8 | B2 |

Biological target: T1, VEGF-165
Experiment: supernatant VEGFR2 RBA (ELISA); + = more than 50% reduction of VEGF binding to VEGF R2/Fc; dAb assayed at 50 nM

| binding result | Binder |
| --- | --- |
| binds | B3 |
| binds | B4 |
| binds | B5 |
| binds | B6 |
| binds | B7 |
| binds | B8 |
| binds | B9 |
| binds | B10 |
| binds | B11 |
| binds | B12 |
